Assay results: the supplement of paper PMC9876800

Test system: peptide library, one residue held at a place counted from the S/T acceptor
Assay: relative phosphorylation of the sub-library (ratio to the mean residue at this position); higher = residue favoured
How it was run: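 Human or orthologue kinase constructs, purified and recombinant, were incubated under kinase-specific conditions in 384-well plates with biotinylated degenerate peptide sub-libraries. Each sub-library fixed one residue at one position around a central Ser/Thr. Incubations lasted 90 min with peptides at 50 μM and 50 μM ATP spiked with γ-32P-ATP, after which spots on streptavidin membranes were phosphorimaged and quantified by densitometry. Relative sub-library phosphorylation is a ratio to the mean residue at that position.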

Sequence of MAP2K5, construct: Full length, human (Q13163 whole entry, looked up): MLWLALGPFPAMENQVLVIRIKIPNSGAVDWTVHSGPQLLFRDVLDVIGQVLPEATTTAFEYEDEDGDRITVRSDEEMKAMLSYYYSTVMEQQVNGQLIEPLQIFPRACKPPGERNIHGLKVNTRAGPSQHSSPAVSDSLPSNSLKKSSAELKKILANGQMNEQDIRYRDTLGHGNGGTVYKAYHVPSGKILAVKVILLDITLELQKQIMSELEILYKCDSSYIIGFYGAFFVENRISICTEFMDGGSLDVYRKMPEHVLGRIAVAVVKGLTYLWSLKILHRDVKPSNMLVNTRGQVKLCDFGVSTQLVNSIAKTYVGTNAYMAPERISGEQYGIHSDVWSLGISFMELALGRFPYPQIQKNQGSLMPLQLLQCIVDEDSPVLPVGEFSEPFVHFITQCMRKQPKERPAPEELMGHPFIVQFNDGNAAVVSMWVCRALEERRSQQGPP
Sequence of CDKL5, construct: aa1-352, mouse (Q3UTQ8 1-352, looked up): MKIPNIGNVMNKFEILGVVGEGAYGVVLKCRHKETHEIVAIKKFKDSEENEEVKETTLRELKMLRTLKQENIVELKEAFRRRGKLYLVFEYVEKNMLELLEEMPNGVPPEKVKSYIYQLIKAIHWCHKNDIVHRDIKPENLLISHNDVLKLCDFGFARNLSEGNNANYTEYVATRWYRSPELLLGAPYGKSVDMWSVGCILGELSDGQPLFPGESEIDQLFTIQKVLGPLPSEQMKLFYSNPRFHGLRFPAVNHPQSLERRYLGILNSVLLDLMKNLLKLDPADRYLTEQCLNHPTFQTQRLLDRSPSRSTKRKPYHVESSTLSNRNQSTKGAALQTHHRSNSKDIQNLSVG

CDKL5, construct: aa1-352, mouse (from UniProt Q3UTQ8)
relative phosphorylation
Conditions	at +1	at +2	at +3	at +4	at -1	at -2	at -3	at -4	at -5
A fixed	4.03	0.798	1.01	0.928	1.15	0.826	0.761	1.03	1.12
D fixed	0.548	0.548	0.634	0.701	0.779	0.559	0.412	0.625	0.556
E fixed	0.528	0.56	0.567	0.593	0.581	0.543	0.427	0.652	0.543
F fixed	0.588	0.903	1.03	1.02	0.782	0.665	0.49	0.866	1.07
G fixed	1.51	0.936	1.03	1.07	1.22	1.06	0.65	1.04	1.24
H fixed	0.679	1.32	0.979	1.19	0.916	0.7	0.61	0.928	1.17
I fixed	0.584	0.853	0.914	0.915	0.812	0.681	0.559	0.9	0.958
K fixed	0.861	1.77	1.42	1.25	1.49	0.976	0.826	1.46	1.24
L fixed	0.564	0.851	0.896	0.925	1.04	0.817	0.516	0.938	0.974
M fixed	0.6	0.832	0.876	0.94	1.08	0.718	0.531	0.997	0.972
N fixed	0.592	0.924	0.895	1.01	0.737	0.575	0.6	0.861	0.8
P fixed	2.33	0.697	1.07	1.09	1.11	5.09	0.758	1.1	0.909
Q fixed	0.704	0.903	0.926	0.909	1.1	0.693	0.658	1.03	0.854
R fixed	1.06	2.48	1.71	1.51	1.49	1.05	7.65	1.9	1.65
V fixed	0.624	0.757	1.01	0.798	0.885	0.715	0.538	0.977	0.88
W fixed	0.631	0.828	0.852	1.17	1.04	0.691	0.515	0.847	1.07
Y fixed	0.563	1.04	1.19	0.987	0.794	0.645	0.499	0.844	0.994
pThr fixed	0.581	0.54	0.682	0.65	0.567	0.588	0.456	0.785	0.702
pTyr fixed	0.522	0.61	0.636	0.626	0.53	0.534	0.458	0.652	0.594

MAP2K5, construct: Full length, human (from UniProt Q13163)
relative phosphorylation
Conditions	at +1	at +2	at +3	at +4	at -1	at -2	at -3	at -4	at -5
A fixed	0.719	0.806	0.742	0.876	0.985	1.01	1.02	0.982	0.924
D fixed	0.453	0.477	0.592	0.598	0.918	0.931	0.998	0.992	0.898
E fixed	0.47	0.454	0.583	0.62	0.73	0.732	0.889	0.982	0.828
F fixed	1.12	0.912	1.29	0.97	0.899	1.75	0.962	1.08	1.2
G fixed	0.703	0.748	0.949	0.998	1.19	0.942	1.16	1.08	0.963
H fixed	0.886	2.3	1.1	1.07	1.15	1.01	1.02	1.09	1.17
I fixed	1.52	0.717	0.919	0.898	0.706	0.696	0.744	0.74	0.856
K fixed	0.872	1.29	1.14	1.49	1.14	0.83	1.08	1.11	1.09
L fixed	1.2	0.711	1.01	0.836	1.07	0.841	0.846	0.783	0.884
M fixed	1.62	0.928	1.06	0.956	1.11	0.866	0.943	0.944	0.889
N fixed	0.836	0.935	0.963	0.891	1.08	0.855	0.906	0.947	0.894
P fixed	0.636	0.604	0.714	1.06	0.809	0.901	1.07	0.902	0.894
Q fixed	0.839	0.918	0.854	1.09	0.969	0.841	0.817	0.834	0.828
R fixed	1.1	1.53	1.36	1.43	1.5	1.23	1.54	1.24	1.19
V fixed	1.2	0.736	0.781	0.774	0.711	0.771	0.684	0.791	0.843
W fixed	1.7	1.36	1.64	1.24	0.875	1.37	1.18	1.38	1.34
Y fixed	1.14	1.57	1.3	1.21	1.17	1.43	1.14	1.12	1.32
pThr fixed	0.902	0.728	0.733	0.792	0.844	1.07	1.34	1.17	1.29
pTyr fixed	0.576	0.485	0.723	0.57	0.974	1.3	1.08	0.835	1.08
